The record followed here is patent publication US20250263469A1 (HOSPITAL FOR SICK CHILDREN, published 2025).

In assay [1] the target is T1, mouse FcRn (mouse, UniProt Q61559 22-297; P01887 21-119).
T1 sequence (looked up) 1: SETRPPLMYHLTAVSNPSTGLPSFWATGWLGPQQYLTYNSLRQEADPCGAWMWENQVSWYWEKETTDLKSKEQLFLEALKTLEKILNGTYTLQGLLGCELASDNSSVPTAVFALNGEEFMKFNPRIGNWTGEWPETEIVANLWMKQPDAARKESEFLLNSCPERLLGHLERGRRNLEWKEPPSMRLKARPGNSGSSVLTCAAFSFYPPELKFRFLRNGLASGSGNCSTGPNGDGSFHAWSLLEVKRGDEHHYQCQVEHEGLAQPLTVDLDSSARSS
T1 sequence (looked up) 2: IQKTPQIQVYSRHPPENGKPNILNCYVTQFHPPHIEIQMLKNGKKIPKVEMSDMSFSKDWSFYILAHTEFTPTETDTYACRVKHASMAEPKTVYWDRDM

The target in assay [2] is T1, mouse FcRn. Briefly: pH 5.6.

B1: mouse surrogate Multabody (HD37, mouse ferritin), LALAP Fc (other, not shown: a dimerising Fc or GST; large carriers; small tags and cut ends)
chain 1: KPCPPCKCPAPNAAGGPSVFIFPPKIKDVLMISLSPIVTCVVVDVSEDDPDVQISWFVNNVEVHTAQTQTHREDYNSTLRVVSALPIQHQDWMSGKEFKCKVNNKDLGAPIERTISKPKGSVRAPQVYVLPPPEEEMTKKQVTLTCMVTDFMPEDIYVEWTNNGKTELNYKNTEPVLDSDGSYFMYSKLRVEKKNWVERNSYSCSVVHEGLHNHHTTKSFSRTPGKGGSSGSGSGSTGTSSSGTGTSAGTTGTSASTSGSGSGGGGGSGGGGSAGGTATAGASSGSGSSGSSSSGGTGKPCPPCKCPAPNAAGGPSVFIFPPKIKDVLMISLSPIVTCVVVDVSEDDPDVQISWFVNNVEVHTAQTQTHREDYNSTLRVVSALPIQHQDWMSGKEFKCKVNNKDLGAPIERTISKPKGSVRAPQVYVLPPPEEEMTKKQVTLTCMVTDFMPEDIYVEWTNNGKTELNYKNTEPVLDSDGSYFMYSKLRVEKKNWVERNSYSCSVVHEGLHNHHTTKSFSRTPGKSRASTASSASSGGGGGGSGGSGGSGGSMTSQIRQNYSTEVEAAVNRLVNLHLRASYTYLSLGFFFDRDDVALEGVGHFFRELAEEKREGAERLLEFQNDRGGRALFQDVQKPSQDEWGKTQEAMEAALAMEKNLNQALLDLHALGSARTDPHLCDFLESHYLDKEVKLIKKMGNHLTNLRRVAGPQPAQTGAPQGSLGEYLFERLTLKHD
chain 2: MTSQIRQNYSTEVEAAVNRLVNLHLRASYTYLSLGFFFDRDDVALEGVGHFFRELAEEKREGAERLLEFQNDRGGRALFQDVQKPSQDEWGKTQEAMEAALAMEKNLNQALLDLHALGSARTDPHLCDFLESHYLDKEVKLIKKMGNHLTNLRRVAGPQPAQTGAPQGSLGEYLFERLTLKHD
notes: also called mLALAP MB; Fc-modified MB (LALAP mutation)
As a reminder, the kon is a measure of how fast the partners come together. A lower kon goes with slower complex formation. Broadly, the Kd is the equilibrium constant for the complex coming apart. Broadly, the koff is the first-order rate constant of dissociation. Read a high koff as a short-lived complex. B1: the kon with mouse FcRn [1] came out at 2.4e+06 M⁻¹ s⁻¹. In the assay with mouse FcRn [2], this molecule displayed a Kd below 1 pM and a koff below 1e-07 s⁻¹.
